Test results published in US7943358B2, “Polymerase enhancing factor (PEF) extracts, PEF protein complexes, isolated PEF protein, and methods for purifying and identifying” (Agilent Technologies, Inc., priority 1997, dated 2011).

Key:
Assay type in all cases: biochemical
[1] = system: gapped-duplex calf thymus DNA; assay: DNA polymerase activity, gapped-duplex calf thymus DNA assay; conditions: 30 minutes at 72° C.
Description: Initially and as a control to confirm the activity of the DNA polymerase used, gapped-duplex calf thymus DNA (Pharmacia) assays were performed. The polymerase cocktail contained 50 mM Tris-HCl, pH 8.0, 5 mM MgCl2, 1 mM DTT, 50 μg/m BSA, 4% glycerol, 200 μM each dNTP, [^3H]TTP (0.5 mCi·μmole final concentration), and 250 μg/ml of activated calf thymus DNA (Pharmacia). Samples containing Pfu DNA polymerase or P. furiosus PEF were serially diluted in Pfu DNA polymerase storage buffer (50 mM Tris-HCl, pH 8.2, 0.1% NP-40, 0.1% Tween-20, 0.1 mM EDTA, 1 mM DTT, 50% glycerol) and then 1 μl of each dilution was added to 10 μl aliquots of polymerase cocktail. Polymerization reactions were conducted in triplicate for 30 minutes at 72° C. The extension reactions were quenched on ice, and then 5 μl aliquots were spotted immediately onto DE81 filters (Whatman). Unincorporated [^3H]TTP was removed by 6 washes with 2×SCC (0.3M NaCl, 30 mM sodium citrate, pH 7.0), followed by one wash with 100% ethanol. Incorporated radioactivity was measured by scintillation counting. The assay was calibrated by counting a known amount of [^3H]TTP on DE-81 filters, omitting the wash steps. One unit of polymerase activity is defined as the amount of enzyme which catalyzes the incorporation of 10 nmoles of total dNTP into polymeric form (binds to DE-81 paper) in 30 minutes at 72° C. […]

[2] = target: T1, cloned Pfu DNA polymerase (Pyrococcus furiosus, UniProt P61875); assay: 6.2 kb primer-template PCR enhancing assay; conditions: protein concentrations comparable to or greater than gel-purified PEFs
T1 sequence (P61875 1-775): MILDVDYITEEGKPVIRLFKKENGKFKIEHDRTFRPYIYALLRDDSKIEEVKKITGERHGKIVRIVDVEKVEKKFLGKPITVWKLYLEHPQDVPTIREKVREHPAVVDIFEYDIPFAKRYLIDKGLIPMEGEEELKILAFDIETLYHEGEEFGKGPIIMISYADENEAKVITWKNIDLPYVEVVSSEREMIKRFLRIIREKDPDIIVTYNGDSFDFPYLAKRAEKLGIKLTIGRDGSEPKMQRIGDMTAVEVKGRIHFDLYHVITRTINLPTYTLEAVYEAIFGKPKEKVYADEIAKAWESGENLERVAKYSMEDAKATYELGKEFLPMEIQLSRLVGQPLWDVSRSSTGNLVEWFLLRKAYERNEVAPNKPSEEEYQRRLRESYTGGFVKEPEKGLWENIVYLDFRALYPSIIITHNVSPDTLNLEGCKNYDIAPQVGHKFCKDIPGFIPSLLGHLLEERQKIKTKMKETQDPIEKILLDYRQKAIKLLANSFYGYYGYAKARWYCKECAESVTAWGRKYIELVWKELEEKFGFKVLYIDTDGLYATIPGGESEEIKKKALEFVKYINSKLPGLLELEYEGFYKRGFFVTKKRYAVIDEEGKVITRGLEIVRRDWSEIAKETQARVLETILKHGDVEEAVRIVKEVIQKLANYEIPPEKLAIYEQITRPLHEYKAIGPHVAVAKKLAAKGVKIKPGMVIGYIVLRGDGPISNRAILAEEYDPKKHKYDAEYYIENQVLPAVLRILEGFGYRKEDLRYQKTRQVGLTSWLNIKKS
Description: One embodiment of an assay used to screen for PEFs, in this case from Pyrococcus furiosus, involved amplifying a 6.2 kb target from transgenic mouse DNA (6.2 kb primer-template assay). A master PCR cocktail was prepared consisting of: 200 μM each dNTP, 2 μg/ml primer F432-21 (5′-CTA-TTG-AGT-ACG-AAC-GCC-ATC) (SEQ ID NO.: 62), 2 μg/ml primer R6656-20 (GTC-ACG-CTT-GCT-CCA-CTC-CG) (SEQ ID NO: 63), 2.5 μg/ml λAA742 DNA (transgenic mouse DNA having 40 copies of a lambda phage DNA shuttle vector), 1× cloned Pfu DNA polymerase PCR buffer (10 mM KCl, 10 mM (NH4)2SO4, 20 mM Tris-HCl (pH 8.8), 2 mM MgSO4, 0.1% (v/v) Triton X-100, and 100 μg/ml BSA), and 25 U/ml cloned Pfu DNA polymerase. Samples were diluted in 1× cloned Pfu DNA polymerase PCR buffer, and 1 μl of each diluted sample was added to 24 μl of the PCR cocktail. PCR amplifications were conducted on the RoboCycler 96 Temperature Cycler (Stratagene), using the following conditions: 96° C. for 45 s (1 cycle)/96° C. for 45 s; 60° C. for 45 s; 72° C. for 14 min. (35 cycles)/72° C. for 10 min. (1 cycle). PCR products (10 μl/lane) are run out on 1% agarose gels and PCR product bands visualized by ethidium bromide staining. […] When PCR enhancement is due to the presence of PEFs, rather than contaminating endogenous DNA polymerase activity, amplifications performed in the absence of […] yield no PCR product. Moreover, PCR amplifications performed in the absence of exogenous DNA template should yield no PCR product when the PEF sample lacks contaminating target DNA.

[3] = PCR cycling of dCTP in the presence of PEF or Pfu DNA polymerase, HPLC; conditions: 10 mM dCTP, 1.25 U Pfu/μl

B1: Pfu DNA polymerase: DNA polymerase of Pyrococcus furiosus (protein, UniProt P61875 1-775, looked up)
DNA polymerase: MILDVDYITEEGKPVIRLFKKENGKFKIEHDRTFRPYIYALLRDDSKIEEVKKITGERHGKIVRIVDVEKVEKKFLGKPITVWKLYLEHPQDVPTIREKVREHPAVVDIFEYDIPFAKRYLIDKGLIPMEGEEELKILAFDIETLYHEGEEFGKGPIIMISYADENEAKVITWKNIDLPYVEVVSSEREMIKRFLRIIREKDPDIIVTYNGDSFDFPYLAKRAEKLGIKLTIGRDGSEPKMQRIGDMTAVEVKGRIHFDLYHVITRTINLPTYTLEAVYEAIFGKPKEKVYADEIAKAWESGENLERVAKYSMEDAKATYELGKEFLPMEIQLSRLVGQPLWDVSRSSTGNLVEWFLLRKAYERNEVAPNKPSEEEYQRRLRESYTGGFVKEPEKGLWENIVYLDFRALYPSIIITHNVSPDTLNLEGCKNYDIAPQVGHKFCKDIPGFIPSLLGHLLEERQKIKTKMKETQDPIEKILLDYRQKAIKLLANSFYGYYGYAKARWYCKECAESVTAWGRKYIELVWKELEEKFGFKVLYIDTDGLYATIPGGESEEIKKKALEFVKYINSKLPGLLELEYEGFYKRGFFVTKKRYAVIDEEGKVITRGLEIVRRDWSEIAKETQARVLETILKHGDVEEAVRIVKEVIQKLANYEIPPEKLAIYEQITRPLHEYKAIGPHVAVAKKLAAKGVKIKPGMVIGYIVLRGDGPISNRAILAEEYDPKKHKYDAEYYIENQVLPAVLRILEGFGYRKEDLRYQKTRQVGLTSWLNIKKS
- specific activity (DNA polymerase) [1]: 2-4×10^4 u/mg
- PCR enhancing activity (in words) [2]: lacks PCR enhancing activity
- change in dCDP, dCMP or dUTP produced when dCTP cycled with Pfu DNA polymerase [3]: no difference
